Measurements as given in patent US20060018915A1 (EPIMUNNE, published 2006).

Tests used:
Assay in all cases: HLA binding, candidate-epitope table; assay not described
A*0301 = target: T1, A*0301 (human, UniProt P61769 21-119)
T1 construct: MHC class I molecule; form in the assay not described; also called HLA-A*0301

A*3101 = target: T2, A*3101 (human, UniProt P61769 21-119, limits assumed)
T2 construct: MHC class I molecule; form in the assay not described; also called HLA-A*3101

A*6801 = target: T3, A*6801 (human, UniProt P61769 21-119, limits assumed)
T3 construct: MHC class I molecule; form in the assay not described; also called HLA-A*6801
T3 sequence (P61769 21-119 limits assumed, chain 2 of 2, other chains not shown): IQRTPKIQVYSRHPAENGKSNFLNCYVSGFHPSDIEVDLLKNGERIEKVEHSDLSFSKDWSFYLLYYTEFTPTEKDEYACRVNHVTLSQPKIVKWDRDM

A*0101 = target: T4, A*0101 (human, UniProt P61769 21-119)
T4 construct: MHC class I molecule; form in the assay not described; also called HLA-A*0101
T4 sequence (P61769 21-119 limits assumed, chain 2 of 2, other chains not shown): as above

T1 sequence (P61769 21-119 limits assumed, chain 2 of 2, other chains not shown): as above
T2 sequence (P61769 21-119 limits assumed, chain 2 of 2, other chains not shown): as above

Binder | IC50 (A*0301) [nM] | IC50 (A*3101) [nM] | IC50 (A*6801) [nM] | IC50 (A*0101) [nM]
VVFGILIKR (also called 1095.51) [Her2/neu.669] | 100 | 13 | 4 | 
GSDCTTIHYNY (also called 52.0136) [p53.226] |  |  |  | 68
